The values below come from the supplement of paper PMC9112550, “Optimization of the antimicrobial peptide Bac7 by deep mutational scanning” (BMC Biology, 2022).

The subject of the series is Escherichia coli TOP10. The series can be described thus: shrunken log2 fold change of peptide-encoding DNA abundance (4.5 h post-induction vs induction); higher = less antimicrobial activity (less host growth inhibition). To be noted: time post-induction: 4.5 h; library: site-saturation at positions 5, 18, 19, 20.
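Further: peptides expressed intracellularly from a pBAD plasmid library in pooled LB shake-flask culture, induced with 0.3% L-arabinose, DNA abundance read by NGS, three biological replicates, DESeq2 with apeglm shrinkage.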

For RRIRSRPPRLPRPRPRPKHTPRP, the “shrunken log2 fold change” value was -0.206.
Regarding RRIRIRPPRLPRPRPRPDHLPRP, the “shrunken log2 fold change” value was -0.846.
Next, RRIRNRPPRLPRPRPRPWIFPRP: -0.201.
Next, RRIRNRPPRLPRPRPRPWDDPRP: 0.0288.
In the case of RRIRRRPPRLPRPRPRPLREPRP it was 1.14; in that of RRIRPRPPRLPRPRPRPKMKPRP, 1.05.
As to RRIRNRPPRLPRPRPRPMMVPRP, the “shrunken log2 fold change” value is -0.194.
In the case of RRIRHRPPRLPRPRPRPAKQPRP it was 0.307; in that of RRIRRRPPRLPRPRPRPPHAPRP, 1.52; in that of RRIRSRPPRLPRPRPRPAYSPRP, -0.0975.
Take RRIRTRPPRLPRPRPRPFTDPRP: the “shrunken log2 fold change” value was 0.00943.
With RRIRGRPPRLPRPRPRPDPYPRP, the “shrunken log2 fold change” value is -0.0305.
In the case of RRIRTRPPRLPRPRPRPLGVPRP it was -0.194; in that of RRIRLRPPRLPRPRPRPMAQPRP, -0.00088; in that of RRIRSRPPRLPRPRPRPPGYPRP, 0.0642.
In the case of RRIRDRPPRLPRPRPRPIGLPRP it was -0.00129; in that of RRIRQRPPRLPRPRPRPDCRPRP, 0.0305.
In the case of RRIRFRPPRLPRPRPRPHLQPRP it was -0.144.
As to RRIRPRPPRLPRPRPRPMHAPRP, the “shrunken log2 fold change” value was found to be 0.159.
As to RRIRVRPPRLPRPRPRPTQPPRP, the “shrunken log2 fold change” value is -0.0625.
Next, RRIRLRPPRLPRPRPRPWQNPRP: -0.195; RRIRERPPRLPRPRPRPHATPRP: 0.238; RRIRCRPPRLPRPRPRPGCHPRP: -0.00885.
In the case of RRIRYRPPRLPRPRPRPHIAPRP it was -0.408; in that of RRIRQRPPRLPRPRPRPCQNPRP, -0.173; in that of RRIRHRPPRLPRPRPRPITNPRP, -1.23.
RRIRMRPPRLPRPRPRPREKPRP: the “shrunken log2 fold change” value worked out at 1.19.
In the case of RRIRWRPPRLPRPRPRPGYHPRP it was -0.263.
In the case of RRIRKRPPRLPRPRPRPEPTPRP it was 1.47.
In the case of RRIRIRPPRLPRPRPRPAFEPRP it was -0.117; in that of RRIRERPPRLPRPRPRPYIMPRP, -0.542.
For the sequence RRIRLRPPRLPRPRPRPVLAPRP, the “shrunken log2 fold change” value is 0.104.
RRIRHRPPRLPRPRPRPALCPRP: the “shrunken log2 fold change” value was determined as 0.174.
In the case of RRIRKRPPRLPRPRPRPVVDPRP it was -0.0213.
As for RRIRPRPPRLPRPRPRPDMYPRP, the “shrunken log2 fold change” value was -0.192.
In the case of RRIRARPPRLPRPRPRPEQQPRP, the “shrunken log2 fold change” value stood at 0.785.
Next, RRIRKRPPRLPRPRPRPGEAPRP: 1.09.
In the case of RRIRDRPPRLPRPRPRPTYMPRP it was -0.248; in that of RRIRERPPRLPRPRPRPMHTPRP, 0.102; in that of RRIRCRPPRLPRPRPRPRGWPRP, 0.605.
For RRIRDRPPRLPRPRPRPIGRPRP, the “shrunken log2 fold change” value is 0.00739.
In the case of RRIRCRPPRLPRPRPRPLHMPRP it was -0.295; in that of RRIRPRPPRLPRPRPRPLIFPRP, -0.411; in that of RRIRVRPPRLPRPRPRPLYPPRP, -0.586.
With RRIRARPPRLPRPRPRPCHIPRP, the “shrunken log2 fold change” value was 0.00153.
On to RRIRHRPPRLPRPRPRPFFEPRP, for which the “shrunken log2 fold change” value is -0.0877.
Next, RRIRGRPPRLPRPRPRPPCIPRP: 0.117; RRIRKRPPRLPRPRPRPTIWPRP: 0.319.
For the sequence RRIRDRPPRLPRPRPRPPTLPRP, the “shrunken log2 fold change” value is -0.0573.
Next, RRIRERPPRLPRPRPRPDRDPRP: -0.0369; RRIRMRPPRLPRPRPRPYSYPRP: 0.0871.
For RRIRNRPPRLPRPRPRPWCIPRP, the “shrunken log2 fold change” value was -0.573.
Next, RRIRDRPPRLPRPRPRPAEAPRP: 0.314; RRIRHRPPRLPRPRPRPSTWPRP: -0.674.
Next, RRIRCRPPRLPRPRPRPYRSPRP: 0.00395.
RRIRIRPPRLPRPRPRPGVDPRP: the “shrunken log2 fold change” value amounted to 0.0326.
In the case of RRIRPRPPRLPRPRPRPVSFPRP it was 0.0766; in that of RRIRQRPPRLPRPRPRPFLSPRP, 0.024; in that of RRIRERPPRLPRPRPRPGAFPRP, -0.0461.
Next, RRIRCRPPRLPRPRPRPTFGPRP: -0.213.
In the case of RRIRRRPPRLPRPRPRPCRFPRP it was -0.0495.
Regarding RRIRRRPPRLPRPRPRPGLSPRP, the “shrunken log2 fold change” value was -0.0549.
In the case of RRIRTRPPRLPRPRPRPHPPPRP it was 0.271; in that of RRIRQRPPRLPRPRPRPCYDPRP, -0.357; in that of RRIRVRPPRLPRPRPRPMLIPRP, -0.0178.
Next, RRIRIRPPRLPRPRPRPEHGPRP: -0.0885; RRIRCRPPRLPRPRPRPDRMPRP: -0.139.
In the case of RRIRIRPPRLPRPRPRPFICPRP it was -0.304; in that of RRIRPRPPRLPRPRPRPFQTPRP, -0.242.
Turning to RRIRLRPPRLPRPRPRPKTGPRP, the “shrunken log2 fold change” value was found to be 0.25.
On to RRIRIRPPRLPRPRPRPKTQPRP, for which the “shrunken log2 fold change” value is -0.0269.
As to RRIRGRPPRLPRPRPRPTNDPRP, the “shrunken log2 fold change” value was determined as 0.564.
In the case of RRIRVRPPRLPRPRPRPHRVPRP it was 0.133; in that of RRIRFRPPRLPRPRPRPHDSPRP, 0.0531.
Next, RRIRDRPPRLPRPRPRPDKMPRP: 0.0425; RRIRCRPPRLPRPRPRPWEDPRP: 0.156; RRIRARPPRLPRPRPRPMARPRP: -0.132.
Consider RRIRARPPRLPRPRPRPDSEPRP, for which the “shrunken log2 fold change” value came out at 0.481.
In the case of RRIRHRPPRLPRPRPRPHHRPRP it was -0.257; in that of RRIRPRPPRLPRPRPRPYYAPRP, -0.709; in that of RRIRKRPPRLPRPRPRPTKEPRP, 1.6.
On to RRIRIRPPRLPRPRPRPGKGPRP, for which the “shrunken log2 fold change” value is -0.185.
As for RRIRRRPPRLPRPRPRPDENPRP, the “shrunken log2 fold change” value turned out to be 0.118.
Next, RRIRGRPPRLPRPRPRPEGCPRP: 1.65; RRIRYRPPRLPRPRPRPDDWPRP: -0.437.
In the case of RRIRCRPPRLPRPRPRPCHVPRP it was -0.00144; in that of RRIRQRPPRLPRPRPRPREMPRP, 0.0554.
In the case of RRIRYRPPRLPRPRPRPDHIPRP it was 0.0129; in that of RRIRQRPPRLPRPRPRPTEDPRP, 0.0148.
For the sequence RRIRDRPPRLPRPRPRPNRPPRP, the “shrunken log2 fold change” value was 0.0951.
Next, RRIRDRPPRLPRPRPRPFWFPRP: 0.0429.
RRIRWRPPRLPRPRPRPEMHPRP: the “shrunken log2 fold change” value came to 0.952.
Next, RRIRARPPRLPRPRPRPPVWPRP: 0.685; RRIRFRPPRLPRPRPRPIMEPRP: -0.319; RRIRPRPPRLPRPRPRPATHPRP: 0.0822.
On to RRIRSRPPRLPRPRPRPTTKPRP, for which the “shrunken log2 fold change” value is 0.0807.
Next, RRIRYRPPRLPRPRPRPKIRPRP: 0.0107; RRIRLRPPRLPRPRPRPQPKPRP: 0.172.
Next, RRIRSRPPRLPRPRPRPYPEPRP: -0.355; RRIRLRPPRLPRPRPRPHCCPRP: -0.376.
As to RRIRDRPPRLPRPRPRPHFAPRP, the “shrunken log2 fold change” value was -0.103.
Take RRIRIRPPRLPRPRPRPELQPRP: the “shrunken log2 fold change” value is -0.0107.
Regarding RRIRPRPPRLPRPRPRPKWMPRP, the “shrunken log2 fold change” value was -0.158.
Consider RRIRLRPPRLPRPRPRPCCCPRP, for which the “shrunken log2 fold change” value is -0.117.
Next, RRIRDRPPRLPRPRPRPKTSPRP: 0.0412; RRIRLRPPRLPRPRPRPKVKPRP: -0.0219; RRIRPRPPRLPRPRPRPMYDPRP: -0.0348.
With RRIRFRPPRLPRPRPRPIPNPRP, the “shrunken log2 fold change” value is -0.361.
Next, RRIRRRPPRLPRPRPRPRKHPRP: 0.535; RRIRMRPPRLPRPRPRPPFNPRP: 0.175.
Regarding RRIRQRPPRLPRPRPRPYQHPRP, the “shrunken log2 fold change” value was -0.515.
Regarding RRIRRRPPRLPRPRPRPEATPRP, the “shrunken log2 fold change” value was found to be 2.74.
Next, RRIRWRPPRLPRPRPRPHMDPRP: -0.18; RRIRFRPPRLPRPRPRPMDHPRP: -0.131.
As for RRIRCRPPRLPRPRPRPYRFPRP, the “shrunken log2 fold change” value was -0.746.
For RRIRSRPPRLPRPRPRPCEPPRP, the “shrunken log2 fold change” value was -1.02.
In the case of RRIRNRPPRLPRPRPRPRWAPRP it was 0.417.
In the case of RRIRWRPPRLPRPRPRPSSEPRP it was 0.0908; in that of RRIRWRPPRLPRPRPRPMGRPRP, -0.012.
Take RRIRQRPPRLPRPRPRPGWDPRP: the “shrunken log2 fold change” value worked out at 0.135.
In the case of RRIRVRPPRLPRPRPRPHCIPRP it was -0.551; in that of RRIRKRPPRLPRPRPRPDIGPRP, -0.0485.
Turning to RRIRKRPPRLPRPRPRPPIDPRP, the “shrunken log2 fold change” value worked out at 0.185.
In the case of RRIRYRPPRLPRPRPRPKQHPRP it was -0.304; in that of RRIRVRPPRLPRPRPRPRNEPRP, 0.115.
